Assay results from patent US20250223359A1.
Residue numbers refer to the chain shown, from its start.

B1: CD3hi anti-CD3 antibody (antibody, V domains shown)
VH: EVQLVESGGGLVQPGGSLKLSCAASGFTFNTYAMNWVRQASGKGLEWVGRIRSKYNNYATYYADSVKDRFTISRDDSKSTLYLQMNSLKTEDTAVYYCVRHGNFGNSYVSWFAYWGQGTLVTVSS
VL: QAVVTQEPSLTVSPGGTVTLTCRSSTGAVTTSNYANWVQQKPGQAPRGLIGGTNKRAPWTPARFSGSLLGDKAALTLSGAQPEDEAEYFCALWYSNLWVFGGGTKLTVL
B2: CD3lo anti-CD3 antibody (antibody, V domains shown)
VH: B1 VH with L81A
VL: B1 VL
B3: CD3med anti-CD3 antibody (antibody, V domains shown)
VH: B1 VH with S79N, L81A, Y114H
VL: B1 VL with R23G, T31S, D71G, F89Y

Each binder was assayed against CD3-Fc (assay: SPR (Biacore T200, 25 C); CD3-Fc captured on anti-hFc IgG1 CM5 chip, antibody injected in 1:2 dilution series; 1:1 binding model).

Row | Kd | Binder
1 | 16 nM | B1
2 | 48 nM | B2
3 | 30 nM | B3
